Results from PMC7677135 (Biophysical Journal, 2020).

Target: T1, PDK1 50–359 [Y288G,Q292A] (human, UniProt O15530 50-359, Y288G | Q292A)
T1 sequence (looked up): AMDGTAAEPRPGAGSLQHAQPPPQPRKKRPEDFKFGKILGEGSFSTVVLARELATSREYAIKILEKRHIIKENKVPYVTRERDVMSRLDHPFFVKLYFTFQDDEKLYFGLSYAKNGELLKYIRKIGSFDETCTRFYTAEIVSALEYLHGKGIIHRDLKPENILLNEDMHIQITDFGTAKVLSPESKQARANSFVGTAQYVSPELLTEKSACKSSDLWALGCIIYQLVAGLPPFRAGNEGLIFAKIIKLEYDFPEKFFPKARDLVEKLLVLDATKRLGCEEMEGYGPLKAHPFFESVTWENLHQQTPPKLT
Assay: HDX-MS

Binder: REPRILSEEEQEMFRDFDYIADWC [PIFtide]
- binding result: binds
